The values that follow come from patent US20230391837A1 (ROWAN UNIVERSITY, published 2023).

The target in this assay is T1, human angiotensin converting enzyme 2 (ACE2) receptor on HSC-2 oral squamous cell carcinoma cells (human, UniProt Q9BYF1 18-805).
T1 construct: whole, on cells
As to the kind of experiment: live cell confocal microscopy of HSC-2 cells with Alexa 595 labeled MASL (legend prints 1.4 pM) and Alexa 647 labeled ACE2 monoclonal antibody. This is colocalisation, not a direct binding assay.

B1: Maackia amurensis seed lectin (MASL) (other)
chain: SDELSFTINNFVPNEADLLFQGEASVSSTGVLQLTRVENGQPQQYSVGRALYAAPVRIWDNTTGSVASFSTSFTFVVKAPNPTITSDGLAFFLAPPDSQIPSGRVSKYLGLFNNSNSDSSNQIVAVEFDTYFGHSYDPWDPNYRHIGIDVNGIESIKTVQWDWINGGVAFATITYLAPNKTLIASLVYPSNQTSFIVAASVDLKEILPEWVRVGFSAATGYPTQVETHDVLSWSFTSTLEANCDAATEN
notes: also called Maacki amurensis seed lectin
In the case of B1, the binding result is reported as “binds”.
